Our source for the Kd values is patent publication US20180355034A1 (published 2018).

For orientation: Kd means a measure of binding affinity in units of concentration.

Changes are numbered by the printed parent chain. In names and notes the source's numbering stands.

B1: A3A-184A (K334N/P352S/A378V/V397M) Fc fragment (other)
chain: DKTHTCPPCPAPELLGGPSVFLFPPKPKDTLMISRTPEVTCVVVDVSHEDPEVKFNWYVDGVEVHNAKTKPREEQYNSTYRVVSVLTVLHQDWLNGKEYKCKVSNKALPAPIENTISKAKGQPREPQVYTLSPSRDELTKNQVSLTCLVKGFYPSDIVVEWESNGQPENNYKTTPPMLDSDGSFFLYSKLTVDKSRWQQGNVFSCSVMHEALHNHYTQKSLSLSPGK
B2: T5A-74K (K290Y/N315D/A330V/N361D/A378V/N434Y) Fc fragment (other)
chain: B1 chain with K70Y, N95D, A110V, N114K, S132P, N141D, M177V, N214Y
B3: T5A-74I (T260A/N315D/A330V/N361D/A378V/N434Y) Fc fragment (other)
chain: B1 chain with T40A, N95D, A110V, N114K, S132P, N141D, M177V, N214Y
B4: J3B-118A (A378V/P396L/N421T) Fc fragment (other)
chain: B1 chain with N114K, S132P, P176L, M177V, N201T
B5: T5A-74M (Y296W/N315D/A330V/N361D/A378V/N434Y) Fc fragment (other)
chain: B1 chain with Y76W, N95D, A110V, N114K, S132P, N141D, M177V, N214Y
B6: T5A-74L (E294A/N315D/A330V/N361D/A378V/N434Y) Fc fragment (other)
chain: B1 chain with E74A, N95D, A110V, N114K, S132P, N141D, M177V, N214Y
B7: T5A-74J (E258I/N315D/A330V/N361D/A378V/N434Y) Fc fragment (other)
chain: B1 chain with E38I, N95D, A110V, N114K, S132P, N141D, M177V, N214Y
B8: A3A-105D (G316D/K326E/A378V) Fc fragment (other)
chain: B1 chain with G96D, K106E, N114K, S132P, M177V

Sequence of Recombinant human FcRn (FcRn alpha and beta2-microglobulin) (P55899 24-290, chain 1 of 2): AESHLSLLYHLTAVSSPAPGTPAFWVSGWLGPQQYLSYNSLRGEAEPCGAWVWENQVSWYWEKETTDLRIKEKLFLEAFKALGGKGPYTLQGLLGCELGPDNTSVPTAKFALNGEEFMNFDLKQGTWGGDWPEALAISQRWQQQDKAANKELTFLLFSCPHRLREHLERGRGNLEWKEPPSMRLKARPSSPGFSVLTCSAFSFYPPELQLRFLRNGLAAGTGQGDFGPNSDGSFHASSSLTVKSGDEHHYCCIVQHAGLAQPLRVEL
Sequence of Recombinant human FcRn (FcRn alpha and beta2-microglobulin) (P61769 21-119, chain 2 of 2): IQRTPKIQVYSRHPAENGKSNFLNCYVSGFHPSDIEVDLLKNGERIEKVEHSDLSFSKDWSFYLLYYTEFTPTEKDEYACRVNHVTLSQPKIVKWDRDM

For the first assay, the target named is Recombinant human CD16aV (V polymorphism at position 158 of CD16) (human, UniProt P08637 17-208). The assay is described as follows: SPR; produced in HEK.
Sequence of Recombinant human CD16aV (V polymorphism at position 158 of CD16) (P08637 17-208 F176V): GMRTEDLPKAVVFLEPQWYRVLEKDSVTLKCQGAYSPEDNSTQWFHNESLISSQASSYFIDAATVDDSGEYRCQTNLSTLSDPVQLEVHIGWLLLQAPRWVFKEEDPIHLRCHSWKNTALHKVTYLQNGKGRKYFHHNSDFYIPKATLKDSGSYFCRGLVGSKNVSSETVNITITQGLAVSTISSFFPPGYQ
On to B1, for which the Kd turned out to be 228 nM. Regarding B2, the Kd is 3180 nM. For the molecule B3, the dissociation constant Kd stood at 3510 nM. For B4, the Kd is 1840 nM.

In the case of B5, the equilibrium dissociation constant (Kd) came to 308 nM.

As for B6, the Kd was 4400 nM. Still for that read-out and setting: in the case of B7 it was 2820 nM; in that of B8, 1210 nM.

Another assay concerns the target Recombinant human FcRn (FcRn alpha and beta2-microglobulin) (human, UniProt P55899 24-290; P61769 21-119). The assay is described as follows: SPR; produced in HEK.
Take B1: the dissociation constant Kd stood at 11.7 nM. On to B2, for which the Kd turned out to be 16.6 nM. Turning to B3, the Kd worked out at 32.5 nM. Turning to B5, the Kd amounted to 27.3 nM. As to B6, the dissociation constant (Kd) came to 37.9 nM. For B7, the dissociation constant (Kd) came out at 30.2 nM. Consider B8, for which the Kd amounted to 231 nM.
